# Target: T1, factor VIIIa (Homo sapiens, UniProt P00451)
# T1 construct: purchased Dr. Leon Hoyer (American Red Cross, Rockville, Md.)
# T1 sequence (P00451 20-759 limits assumed): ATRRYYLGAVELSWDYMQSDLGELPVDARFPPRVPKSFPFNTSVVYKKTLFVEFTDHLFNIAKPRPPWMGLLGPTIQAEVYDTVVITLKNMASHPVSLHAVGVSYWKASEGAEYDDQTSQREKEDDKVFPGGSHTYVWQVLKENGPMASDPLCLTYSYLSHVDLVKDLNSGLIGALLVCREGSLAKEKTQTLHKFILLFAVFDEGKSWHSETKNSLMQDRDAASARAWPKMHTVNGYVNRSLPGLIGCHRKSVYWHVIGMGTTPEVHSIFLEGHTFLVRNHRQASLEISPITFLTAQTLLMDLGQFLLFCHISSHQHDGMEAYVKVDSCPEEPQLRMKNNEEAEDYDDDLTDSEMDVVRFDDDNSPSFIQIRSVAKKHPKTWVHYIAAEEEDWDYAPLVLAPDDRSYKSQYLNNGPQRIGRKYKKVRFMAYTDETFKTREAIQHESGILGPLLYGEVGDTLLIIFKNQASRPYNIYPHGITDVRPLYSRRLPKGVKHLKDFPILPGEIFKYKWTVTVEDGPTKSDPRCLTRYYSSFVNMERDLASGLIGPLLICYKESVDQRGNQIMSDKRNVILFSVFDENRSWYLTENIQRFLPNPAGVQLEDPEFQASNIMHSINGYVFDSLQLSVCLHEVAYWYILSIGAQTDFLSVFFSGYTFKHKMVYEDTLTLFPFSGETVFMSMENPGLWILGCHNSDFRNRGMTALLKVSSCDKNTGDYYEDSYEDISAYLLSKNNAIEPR
# T1 sequence (P00451 1668-2351 limits assumed): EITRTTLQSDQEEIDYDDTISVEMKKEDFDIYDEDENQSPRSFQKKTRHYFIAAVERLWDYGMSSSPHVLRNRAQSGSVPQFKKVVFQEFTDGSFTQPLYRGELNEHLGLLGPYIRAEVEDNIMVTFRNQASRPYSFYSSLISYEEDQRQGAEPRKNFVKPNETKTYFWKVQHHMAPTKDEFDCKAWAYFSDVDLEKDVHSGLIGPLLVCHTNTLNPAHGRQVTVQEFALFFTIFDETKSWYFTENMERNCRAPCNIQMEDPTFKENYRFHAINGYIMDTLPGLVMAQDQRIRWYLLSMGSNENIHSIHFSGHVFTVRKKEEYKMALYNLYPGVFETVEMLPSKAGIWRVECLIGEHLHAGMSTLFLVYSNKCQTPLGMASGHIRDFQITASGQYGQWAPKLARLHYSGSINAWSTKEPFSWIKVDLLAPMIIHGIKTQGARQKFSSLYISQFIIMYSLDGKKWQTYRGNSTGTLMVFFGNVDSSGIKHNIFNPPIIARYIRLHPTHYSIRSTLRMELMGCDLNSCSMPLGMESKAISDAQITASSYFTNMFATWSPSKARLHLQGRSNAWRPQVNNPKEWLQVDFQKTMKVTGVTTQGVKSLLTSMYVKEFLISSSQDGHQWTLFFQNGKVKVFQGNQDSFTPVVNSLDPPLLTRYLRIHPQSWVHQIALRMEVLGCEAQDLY
# Experiment: inhibition of Xa generation by active site-blocked (DEGR) IXa proteins, absence of phospholipid (Kd,app for VIIIa)
# Format: biochemical
# Description: Apparent Kds of factor VIIIa binding to various active site-blocked factor IXa proteins were determined from inhibition experiments as detailed in Mathur et al., 1997, supra. […] Reactions were carried out for 2 min and the rates of factor X activation were measured as outlined above.
# Various DEGR-ck-inhibited factor IXa proteins were prepared for these experiments as follows. IXNP, IXWT, and each mutant factor IX at 200 μg/ml was activated by factor XIa (2 μg/ml) for 90 min. in TBS, pH 7.4 (0.05 M Tris, 0.15 M NaCl, pH 7.4) containing 5 mM Ca^2+.
# Enzymol. 74, 481–508 given below:
# [formula] where y is the rate of Xa formation in the presence of a given concentration of DEGR-IXa protein represented by x, a is the maximum rate of Xa formation in the absence of DEGR-IXa, and s is the slope factor. Each point was weighted equally and the data were fitted to Equation 1 using the nonlinear regression analysis program obtained from Erithacus Software (GraFit). […] To obtain the Kd,app values for the interaction of DEGR-IXa proteins with factor VIIIa, the following equation was used, as described by Cheng and Prusoff, 1973, Biochem. Pharmacol. 22, 3099–3108 and further discussed by Craig, 1993, Trends Pharmacol. Sci. 6, 68–71.
substance,measurement,setting,value
IXaV331A: activated factor IX mutant V331A,fold-reduction in affinity for factor VIIIa compared with DEGR-IXaWT,absence of phospholipid,7 fold
same,Kd,"active site-blocked (DEGR) IXa proteins, no phospholipid, read-out: Kd, app for interaction with factor VIIIa, PL-minus system",1350 ± 310 nM

# Reference: patent US7109170B2, “Region of factor IXa protease domain that interacts with factor VIIIa and methods therefor” (Saint Louis University, priority 1999, dated 2006)
